From patent EP2322204A1

Target: LRP1 receptor on human astrocytoma 1321N1 cells (human) (UniProt Q07954)
Experiment: cell-based or functional assay

UniProt Q07954, sequence (Q07954 20-4544): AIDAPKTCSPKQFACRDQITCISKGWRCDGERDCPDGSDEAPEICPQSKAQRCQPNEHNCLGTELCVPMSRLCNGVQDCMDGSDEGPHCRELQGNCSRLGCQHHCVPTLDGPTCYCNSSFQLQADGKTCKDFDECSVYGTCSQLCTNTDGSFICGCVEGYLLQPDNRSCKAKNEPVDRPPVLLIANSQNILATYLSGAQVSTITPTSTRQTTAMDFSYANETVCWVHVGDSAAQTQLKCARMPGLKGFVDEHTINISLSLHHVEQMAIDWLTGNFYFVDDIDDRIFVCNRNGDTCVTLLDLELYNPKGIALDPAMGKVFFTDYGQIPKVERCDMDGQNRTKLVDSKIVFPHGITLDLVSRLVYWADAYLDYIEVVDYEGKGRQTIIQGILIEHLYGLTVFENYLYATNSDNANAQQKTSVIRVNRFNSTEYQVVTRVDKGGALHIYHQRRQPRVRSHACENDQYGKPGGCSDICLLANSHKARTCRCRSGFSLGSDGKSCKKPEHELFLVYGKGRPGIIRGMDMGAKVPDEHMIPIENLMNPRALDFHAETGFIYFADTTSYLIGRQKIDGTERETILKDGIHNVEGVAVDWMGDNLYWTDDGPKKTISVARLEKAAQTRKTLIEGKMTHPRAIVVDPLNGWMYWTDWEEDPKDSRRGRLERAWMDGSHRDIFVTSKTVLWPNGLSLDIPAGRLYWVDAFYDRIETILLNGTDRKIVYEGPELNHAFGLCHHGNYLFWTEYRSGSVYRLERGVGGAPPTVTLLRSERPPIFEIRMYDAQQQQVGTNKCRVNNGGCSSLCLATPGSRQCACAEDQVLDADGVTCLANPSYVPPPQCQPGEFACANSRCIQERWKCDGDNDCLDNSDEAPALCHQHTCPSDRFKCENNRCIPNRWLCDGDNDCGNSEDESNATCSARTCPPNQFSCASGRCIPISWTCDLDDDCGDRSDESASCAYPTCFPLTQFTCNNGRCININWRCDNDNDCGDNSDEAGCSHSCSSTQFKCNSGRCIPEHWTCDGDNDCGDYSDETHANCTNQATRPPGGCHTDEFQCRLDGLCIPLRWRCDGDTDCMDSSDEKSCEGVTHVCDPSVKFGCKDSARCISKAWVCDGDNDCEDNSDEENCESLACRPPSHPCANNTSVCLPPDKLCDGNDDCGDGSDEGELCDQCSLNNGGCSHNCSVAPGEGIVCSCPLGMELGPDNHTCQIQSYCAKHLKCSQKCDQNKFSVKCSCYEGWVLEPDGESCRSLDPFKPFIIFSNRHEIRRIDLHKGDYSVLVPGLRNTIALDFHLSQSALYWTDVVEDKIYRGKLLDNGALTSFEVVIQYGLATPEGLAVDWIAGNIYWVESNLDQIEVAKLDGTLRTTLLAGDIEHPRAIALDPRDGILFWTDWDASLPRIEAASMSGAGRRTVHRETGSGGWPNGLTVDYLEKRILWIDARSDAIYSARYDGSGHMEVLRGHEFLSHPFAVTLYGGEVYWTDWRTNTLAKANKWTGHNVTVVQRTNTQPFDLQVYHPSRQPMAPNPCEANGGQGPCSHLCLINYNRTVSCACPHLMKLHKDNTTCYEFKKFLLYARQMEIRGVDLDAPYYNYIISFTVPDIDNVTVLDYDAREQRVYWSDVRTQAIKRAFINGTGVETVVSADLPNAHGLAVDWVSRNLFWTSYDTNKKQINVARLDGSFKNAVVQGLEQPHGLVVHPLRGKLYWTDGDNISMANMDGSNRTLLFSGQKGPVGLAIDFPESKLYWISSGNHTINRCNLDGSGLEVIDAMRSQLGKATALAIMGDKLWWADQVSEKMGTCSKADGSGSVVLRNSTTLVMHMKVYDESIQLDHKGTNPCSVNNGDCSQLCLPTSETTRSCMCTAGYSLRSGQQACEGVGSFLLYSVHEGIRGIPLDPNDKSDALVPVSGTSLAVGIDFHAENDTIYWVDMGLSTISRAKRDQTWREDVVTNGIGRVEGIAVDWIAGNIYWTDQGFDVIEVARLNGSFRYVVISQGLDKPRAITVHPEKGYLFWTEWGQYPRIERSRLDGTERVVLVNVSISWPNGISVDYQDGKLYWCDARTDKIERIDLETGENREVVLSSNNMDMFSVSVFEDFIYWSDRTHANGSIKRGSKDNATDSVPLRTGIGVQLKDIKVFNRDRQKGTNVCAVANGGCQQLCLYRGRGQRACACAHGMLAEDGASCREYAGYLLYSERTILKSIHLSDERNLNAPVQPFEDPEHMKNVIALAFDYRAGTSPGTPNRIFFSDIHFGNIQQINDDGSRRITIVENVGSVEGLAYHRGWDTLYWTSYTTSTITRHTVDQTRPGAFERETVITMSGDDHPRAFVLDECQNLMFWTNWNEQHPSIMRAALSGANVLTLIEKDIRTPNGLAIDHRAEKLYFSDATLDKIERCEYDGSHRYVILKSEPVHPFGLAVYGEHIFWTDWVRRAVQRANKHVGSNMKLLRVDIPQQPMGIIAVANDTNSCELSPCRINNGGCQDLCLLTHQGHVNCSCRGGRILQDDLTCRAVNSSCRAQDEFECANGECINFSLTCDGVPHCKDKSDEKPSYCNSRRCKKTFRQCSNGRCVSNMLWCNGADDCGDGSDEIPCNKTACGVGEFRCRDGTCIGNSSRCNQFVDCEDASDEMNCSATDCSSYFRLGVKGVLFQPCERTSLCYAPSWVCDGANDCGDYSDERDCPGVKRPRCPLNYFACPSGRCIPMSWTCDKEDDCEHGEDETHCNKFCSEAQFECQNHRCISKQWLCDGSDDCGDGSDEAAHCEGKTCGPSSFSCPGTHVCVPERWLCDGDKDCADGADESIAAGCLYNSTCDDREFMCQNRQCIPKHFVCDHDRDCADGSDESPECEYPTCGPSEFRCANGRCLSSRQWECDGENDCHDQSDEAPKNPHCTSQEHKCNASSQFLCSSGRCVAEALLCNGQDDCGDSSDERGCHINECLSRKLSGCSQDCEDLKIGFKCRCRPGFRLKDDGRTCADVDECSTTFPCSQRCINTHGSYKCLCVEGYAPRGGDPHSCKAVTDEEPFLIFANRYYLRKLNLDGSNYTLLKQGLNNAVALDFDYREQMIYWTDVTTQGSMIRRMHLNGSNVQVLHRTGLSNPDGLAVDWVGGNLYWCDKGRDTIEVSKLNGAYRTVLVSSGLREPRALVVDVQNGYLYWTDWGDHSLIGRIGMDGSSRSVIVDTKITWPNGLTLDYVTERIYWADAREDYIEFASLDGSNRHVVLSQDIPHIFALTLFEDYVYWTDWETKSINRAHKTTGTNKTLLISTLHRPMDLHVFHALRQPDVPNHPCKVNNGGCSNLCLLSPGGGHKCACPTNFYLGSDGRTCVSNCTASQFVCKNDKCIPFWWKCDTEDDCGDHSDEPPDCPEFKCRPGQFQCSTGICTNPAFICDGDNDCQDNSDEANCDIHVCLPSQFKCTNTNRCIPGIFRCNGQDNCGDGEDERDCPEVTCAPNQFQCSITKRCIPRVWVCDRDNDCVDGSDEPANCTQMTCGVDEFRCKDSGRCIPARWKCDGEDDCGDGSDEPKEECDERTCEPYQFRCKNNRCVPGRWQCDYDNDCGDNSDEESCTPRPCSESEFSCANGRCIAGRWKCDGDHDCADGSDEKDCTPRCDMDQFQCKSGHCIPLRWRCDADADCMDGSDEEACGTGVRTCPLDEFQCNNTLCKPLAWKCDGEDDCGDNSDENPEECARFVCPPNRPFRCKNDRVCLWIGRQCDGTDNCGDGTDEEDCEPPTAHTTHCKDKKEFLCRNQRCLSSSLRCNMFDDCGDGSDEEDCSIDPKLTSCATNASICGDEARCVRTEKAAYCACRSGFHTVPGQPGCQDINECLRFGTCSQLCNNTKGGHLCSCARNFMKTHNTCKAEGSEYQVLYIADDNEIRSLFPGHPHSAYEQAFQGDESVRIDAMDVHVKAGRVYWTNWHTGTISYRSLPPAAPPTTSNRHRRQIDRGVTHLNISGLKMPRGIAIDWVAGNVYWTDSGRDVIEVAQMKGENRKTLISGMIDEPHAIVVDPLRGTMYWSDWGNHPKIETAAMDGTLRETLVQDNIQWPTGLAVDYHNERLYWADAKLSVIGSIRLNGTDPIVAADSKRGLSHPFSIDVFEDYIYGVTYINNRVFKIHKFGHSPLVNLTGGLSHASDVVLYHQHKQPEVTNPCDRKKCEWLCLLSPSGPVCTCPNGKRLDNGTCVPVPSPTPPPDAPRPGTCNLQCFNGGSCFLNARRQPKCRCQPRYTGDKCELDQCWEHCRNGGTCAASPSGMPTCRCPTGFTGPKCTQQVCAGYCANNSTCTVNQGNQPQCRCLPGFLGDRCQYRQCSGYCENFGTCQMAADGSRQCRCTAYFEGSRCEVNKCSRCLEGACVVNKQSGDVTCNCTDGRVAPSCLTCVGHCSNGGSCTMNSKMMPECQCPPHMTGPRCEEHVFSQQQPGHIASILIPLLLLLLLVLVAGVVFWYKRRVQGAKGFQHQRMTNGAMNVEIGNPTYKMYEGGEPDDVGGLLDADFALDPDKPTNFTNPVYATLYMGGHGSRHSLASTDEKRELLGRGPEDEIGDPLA

decrease in colony formation in soft agar (anchorage-independent growth), 1321N1 cells: > 50%
Substance: methylamine-transformed A2M* (activated alpha-2-macroglobulin) (from UniProt P01023 24-1474) (ligand)
